This is an account of results in the supplement of paper PMC12042874.

± gives the uncertainty stated by the source.

This data set is described as follows: amyloid nucleation score (Sup35N fusion, yeast selection) (log enrichment); library NNK3; higher = more nucleation; inactive = no reads after selection. An outline of the steps:
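Using DiMSum, nucleation scores were taken as the log enrichment of output over input reads, centred on the mode score of non-aggregating sequences. The input and output reads came from Illumina sequencing of plasmid inserts, with sequences under 100 input reads excluded. The yeast were psi-negative, expressed Sup35N fused to peptides of 20 random codons, were induced with 100 μM copper sulfate for 24 hours, and were grown 7 days at 30°C on medium lacking adenine and uracil.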
As to RIETYCVRGILAIE, the amyloid nucleation score result is “inactive”.

For the substance IYLMVFNCMFEVTFRLSVES, the amyloid nucleation score result is “inactive”.

Take SFKDCSVDSWFGSIIG: the amyloid nucleation score result was “inactive”.

For PLLMDPTFPFAIRTDMVSLR, the amyloid nucleation score result was “inactive”.

The substance TLKCQHCIHVLGCVDMLTNF showed an amyloid nucleation score of 1.46 ± 0.11.

In turn, QFITLCLSSRSEVSVPFSLW yielded an amyloid nucleation score of 0.997 ± 0.12.

ARSNRCSM: the amyloid nucleation score result was “inactive”.

As for TKSYSMVSPIRVLNTDLIY, the amyloid nucleation score result was “inactive”.

For VICIKEEEG, the amyloid nucleation score result was “inactive”.

For the substance NYRRTCTVLSDGYFNYIT, the amyloid nucleation score entry was “inactive”.

With KEAVFIFSTHSGFLALFCMM, the amyloid nucleation score entry is “inactive”.

With VMCVGYGTSRYSWVAFGLDK, the amyloid nucleation score result is “inactive”.

With NLCSCDNWRRRRCASMWALV, the amyloid nucleation score entry is “inactive”.

As to KGFDRMMGVH, the amyloid nucleation score result was “inactive”.

Take SFKAWIWSSMIAVGLTQRYS: the amyloid nucleation score result was “inactive”.

Substance HNFLIMWKSVVVLAVAISAK displayed an amyloid nucleation score of 0.627 ± 0.18.

Take FQTGPRYAWGLQTGLNKQVC: the amyloid nucleation score result was “inactive”.

ILIRREFGLFTNFSMYGSKA: the amyloid nucleation score entry was “inactive”.

In turn, MRISRAVHELWILNFVTKES registered an amyloid nucleation score of -0.52 ± 1.3.

As to CFVKGFTIETFWLKVVGIRG, the amyloid nucleation score entry is “inactive”.

Regarding KRLIVVIFKQWPARGCTTHC, the amyloid nucleation score entry was “inactive”.

EVGDPMYRTIGVKFGPLAME: the amyloid nucleation score result was “inactive”.

Turning to FGNGSMNRDRSSM, the amyloid nucleation score entry is “inactive”.

For the substance QGNSIWMYLGWVNKTML, the amyloid nucleation score entry is “inactive”.

Regarding VCCSVSVAWKSWAHT, the amyloid nucleation score was 1.28 ± 0.13.

As for HRDCRKFCSMNTHANMNMLS, the amyloid nucleation score result is “inactive”.

In the case of NTFDTVLFRDLVYL, the amyloid nucleation score result is “inactive”.

Consider CFSELIYMLLNVDGNFSLRV, for which the amyloid nucleation score result is “inactive”.

SRITLPDIIMFHCMFNGTDV: the amyloid nucleation score is 0.339 ± 0.67.

As for CTGSWMVTAERLARACHTRL, the amyloid nucleation score entry is “inactive”.

For YSSMYFL, the amyloid nucleation score result was “inactive”.

For the substance HKDTSDFISHVRVSPWPNKG, the amyloid nucleation score entry was “inactive”.

As for SWFGLAIRSV, the amyloid nucleation score result was “inactive”.

In turn, VCKVCFVERSCVVVVNV gave an amyloid nucleation score of 1.8 ± 0.067.

Turning to VLYVTKGVIFRCGCYNVGED, the amyloid nucleation score came out at 1.7 ± 0.11.

As for NHCYLLL, the amyloid nucleation score entry is “inactive”.

As to PLTLIQDQQGRVSFSKA, the amyloid nucleation score entry is “inactive”.

In turn, NARHFIRYATFCCQYASRCG gave an amyloid nucleation score of 0.928 ± 0.18.

In turn, RNNMKTCNVMCIFSNECHCR came in with an amyloid nucleation score of 2.85 ± 0.055.

In the case of RCFVPINGK, the amyloid nucleation score entry was “inactive”.

Take NFQVDNVGSYS: the amyloid nucleation score result is “inactive”.

AKWMAFSSSSFRSCFFSFKQ: the amyloid nucleation score was -0.804 ± 1.8.

Regarding SNWEFYDRYTYRRLGLEQKV, the amyloid nucleation score entry is “inactive”.

Take VTMMLVMLFSQMFSFLAFVN: the amyloid nucleation score entry was “inactive”.

With GTIRQS, the amyloid nucleation score result was “inactive”.

With SSSTVYISVLVINHIDGSIR, the amyloid nucleation score came out at 2.42 ± 0.051.

CWVVHGNNRVHGHMLGLRAI: the amyloid nucleation score result is “inactive”.

For the substance KRWEPMACPDSNRDKLKECV, the amyloid nucleation score entry is “inactive”.

With LKARYYNYIASERSGCEFHK, the amyloid nucleation score entry was “inactive”.

Substance GLRGVDWVDREQLPGTVQGH gave an amyloid nucleation score of -0.589 ± 1.9.

On to DFSNILLGTNQNNAVSAGSG, for which the amyloid nucleation score result is “inactive”.

As to TGQQE, the amyloid nucleation score entry is “inactive”.

On to YNYKSLMHLIGYDNRIAESR, for which the amyloid nucleation score result was “inactive”.

With GDMVCFVLMKALV, the amyloid nucleation score result is “inactive”.

For the substance IHKTFLTL, the amyloid nucleation score result is “inactive”.

Turning to RCTHYMNRQMVLHVCMYVSY, the amyloid nucleation score result was “inactive”.

Turning to YGMLFYIYYMPRIFQYAVNL, the amyloid nucleation score turned out to be 1.56 ± 0.065.

For TEYRYVLSISCH, the amyloid nucleation score result was “inactive”.

Substance DYMLLWNCVLVILFN had an amyloid nucleation score of 0.323 ± 0.45.

For VLILFVCPNFVLGSGVLIGW, the amyloid nucleation score result was “inactive”.

Take IGCEQDADNYNRSWWIWMKF: the amyloid nucleation score entry is “inactive”.

Take SRECLRKLDVSNSTRIK: the amyloid nucleation score was -0.097 ± 0.24.

RLATHCKHNASCQQSFYRE: the amyloid nucleation score entry was “inactive”.

MGYLMRALGHCSY: the amyloid nucleation score result is “inactive”.

Take ILIPNNFLLMQLDWLLIEF: the amyloid nucleation score result is “inactive”.

Take LWQDMRLLSGLL: the amyloid nucleation score entry was “inactive”.

On to LYSAAVVNGGLCDRL, for which the amyloid nucleation score result was “inactive”.

Substance VTFYFSYMCAKGTH returned an amyloid nucleation score of 0.53 ± 0.17.

As to MTWGSNFSDNGYKLEIMCYQ, the amyloid nucleation score result was “inactive”.

On to PFPFSNLLERV, for which the amyloid nucleation score was determined as 0.364 ± 0.34.

As to MFAADDLIPTKIVGSCF, the amyloid nucleation score entry is “inactive”.

As for LCVLPMSSTRGPHNICSTLL, the amyloid nucleation score result is “inactive”.

Turning to FDGYCFFYYWLGVWWSTSI, the amyloid nucleation score entry is “inactive”.

Regarding RVVYLHNSVRLSLDVNPIAV, the amyloid nucleation score entry is “inactive”.

YRMIKHRTFDSPVLFS: the amyloid nucleation score entry is “inactive”.

The substance LVSVVYLEGTGGDYDFFIAT returned an amyloid nucleation score of 2.01 ± 0.079.

With NGVVMVKSRNVPADKSNCDG, the amyloid nucleation score entry was “inactive”.

Consider SAGISYFCDILKSTYAVFAV, for which the amyloid nucleation score result is “inactive”.

As to HLYDPVFTKVAPRSSGGYGQ, the amyloid nucleation score result was “inactive”.

For the substance VSITVFPFTLLITYLI, the amyloid nucleation score stood at 0.165 ± 0.75.

For the substance TYAIGLHMLGSMGKIPDWEQ, the amyloid nucleation score stood at 1.25 ± 0.14.

Regarding EHLPSSHP, the amyloid nucleation score result is “inactive”.

Consider INTKECYHSGS, for which the amyloid nucleation score entry was “inactive”.

For the substance CYNDRFFIVSIYRDQ, the amyloid nucleation score is 1.07 ± 0.1.

In the case of NSDLIRVNRSVMYAKETCEV, the amyloid nucleation score result was “inactive”.

As to ELNWWHLLVICCVYYFMVLF, the amyloid nucleation score result is “inactive”.

Take NCCCLYP: the amyloid nucleation score was 1.71 ± 0.091.

For HKPFNFYLGLPLTVV, the amyloid nucleation score entry was “inactive”.

For the substance KGFFFCRTYVSSFWTKIGIF, the amyloid nucleation score result was “inactive”.

FNAPVNVLFR returned an amyloid nucleation score of -0.176 ± 0.6.

With YPGTASAG, the amyloid nucleation score entry was “inactive”.

For the substance AFISSKARTYKIRMMPVPTS, the amyloid nucleation score result was “inactive”.

IYVQNSTANKR: the amyloid nucleation score result was “inactive”.

As for VSKVKSNPPYITDEIVFCRR, the amyloid nucleation score entry is “inactive”.

On to ISLLTVHTVSVTF, for which the amyloid nucleation score result was “inactive”.

The substance DCKINIGVVVSLGACLSWSE came in with an amyloid nucleation score of 1.65 ± 0.084.

In the case of EGRWTCPFGGWTESFGSLYW, the amyloid nucleation score entry is “inactive”.

FRVTMMSACRLDSIGLDCSC: the amyloid nucleation score worked out at 1.25 ± 0.086.

Regarding IKRSGGYVGFCRLVERSQRG, the amyloid nucleation score entry was “inactive”.

Substance GLLAFKVLISKASVDFYNVS displayed an amyloid nucleation score of -0.134 ± 0.4.

On to MLQWVESLGGICITRSVLIL, for which the amyloid nucleation score result is “inactive”.

Take PFDHTSHNVVRKLLSSELLR: the amyloid nucleation score entry is “inactive”.

Take LCYTPRGNKFTHLKW: the amyloid nucleation score was determined as 0.595 ± 0.18.

On to LEGLSKNQWGCLDATCSYTE, for which the amyloid nucleation score result is “inactive”.

TTIYSEVLFRDHCVWQYPDR: the amyloid nucleation score result is “inactive”.

Turning to FMSYCMYSLEGNSWHCGP, the amyloid nucleation score was determined as 3.03 ± 0.061.

As to GSSVELVIQSS, the amyloid nucleation score stood at 0.415 ± 0.28.

Substance AIINSVREPWAPAMAHTNNA registered an amyloid nucleation score of 0.586 ± 0.21.

Turning to MAPVGL, the amyloid nucleation score result was “inactive”.

Turning to DTVKKVYSYYMTLNYVEPLP, the amyloid nucleation score result is “inactive”.

As for VSDCESMAN, the amyloid nucleation score entry is “inactive”.

Turning to RSVGYRTAVMRHLYIMMN, the amyloid nucleation score result is “inactive”.

IKATWRSFMCVIFNLLLLP yielded an amyloid nucleation score of -0.184 ± 1.3.

For WLGKYVLVSEYIV, the amyloid nucleation score result is “inactive”.

With YLRKVSYNMHCRNWSWGDWS, the amyloid nucleation score entry is “inactive”.

With ESNDIIINV, the amyloid nucleation score entry is “inactive”.

FNVYFGAIVFKEDLPCSYSA: the amyloid nucleation score stood at 1.23 ± 0.12.

Take HCRAYITEPCKTWLY: the amyloid nucleation score entry is “inactive”.

On to KHILFE, for which the amyloid nucleation score entry was “inactive”.

FKSYTWMKNLTVGFRIDPSE: the amyloid nucleation score entry was “inactive”.

As to MAFYQHDILTMFLYRFRDAR, the amyloid nucleation score entry is “inactive”.

In the case of IHLRDMSLS, the amyloid nucleation score was found to be 0.591 ± 0.16.

As to LRWCGSVFLFGGCRGTVVSW, the amyloid nucleation score entry is “inactive”.

WGITA: the amyloid nucleation score result was “inactive”.

In the case of YRPAALSYQTRVCGTYWNDR, the amyloid nucleation score result was “inactive”.

For MRCILTLFSTDIICVLSCKC, the amyloid nucleation score result was “inactive”.

As for LDHAKRHIIVPEYLSLAKKQ, the amyloid nucleation score entry is “inactive”.

Consider TSRHVLR, for which the amyloid nucleation score was -0.187 ± 0.66.

For the substance HDYYFDTRDTIRVIL, the amyloid nucleation score entry was “inactive”.

Take FTLWYVFRCVRCNKVCSGTG: the amyloid nucleation score worked out at 0.087 ± 0.26.

On to YTSEFVIAAWSLLFDDRYMS, for which the amyloid nucleation score result is “inactive”.

SCIYTMAIRNNKVRCYFRAG: the amyloid nucleation score result is “inactive”.
